Test results taken from patent publication US20040001839A1, “Multimers - isolated molecules comprising epitopes containing sulfated moieties, antibodies to such epitopes, and uses thereof” (priority 2000, published 2004).
No end group written: not given here. *: point of attachment. sulfate = O=S(=O)(O)*

T1: PSGL-1 on KG-1 cells (human) (UniProt Q14242)
T1 sequence (sulfated tyrosine residues at the N-terminal site, looked up): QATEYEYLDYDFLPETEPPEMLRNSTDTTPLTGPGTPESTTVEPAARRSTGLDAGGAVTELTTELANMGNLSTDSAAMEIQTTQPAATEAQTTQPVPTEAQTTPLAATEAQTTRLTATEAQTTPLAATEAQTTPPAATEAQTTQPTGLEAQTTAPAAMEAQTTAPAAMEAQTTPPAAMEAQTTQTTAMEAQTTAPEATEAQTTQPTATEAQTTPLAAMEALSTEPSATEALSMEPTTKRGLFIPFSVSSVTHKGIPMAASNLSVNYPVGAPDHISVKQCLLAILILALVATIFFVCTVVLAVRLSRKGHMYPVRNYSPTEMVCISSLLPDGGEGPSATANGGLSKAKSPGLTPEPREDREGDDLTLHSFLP

B1: P-1-S (peptide)
peptide: GDEGDTDLY(sulfate)DY(sulfate)Y(sulfate)PEEDTE
B2: Y1-biotag tetramers with streptavidin-PE (protein, part only; not given: streptavidin-PE carrier, not shown: another chain or arm of the molecule; large carriers; small tags and cut ends)
scFv 1: MEVQLVESGGGVVRPGGSLRLSCAASGFTFDDYGMSWVRQAPGKGLEWVSGINWNGGSTGYADSVKGRFTISRDNAKNSLYLQMNSLRAEDTAVYYCARMRAPVIWGQGTLVTVSRGGGGSGGGGSGGGGSSELTQDPAVSVALGQTVRITCQGDSLRSYYASWYQQKPGQAPVLVIYGKNNRPSGIPDRFSGSSSGNTASLTITGAQAEDEADYYCNSRDSSGNHVVFGGGTKLTVLGGGGLNDIFEAQKIEWHE
scFv 2: B2 scFv 1
scFv 3: B2 scFv 1
scFv 4: B2 scFv 1
modifications: Each chain pos 251: Lys of the BirA tag carries biotin, written K. The four chains are held non-covalently on streptavidin conjugated to phycoerythrin, which is not given.

What was measured:
Y1 scFv [1] = test: competitive FACS: Y1-scFv 1 µg preincubated with peptide at 200 µM, residual binding to washed platelets; conditions: remark: other sources report otherwise
Y1 scFv [2] = test: competition ELISA: Y1 0.25 µg/well preincubated with peptide at 0.5 µM, residual binding to glycocalicin; conditions: remark: other sources report otherwise
Y1 scFv [3] = test: competition ELISA: Y1 0.25 µg/well preincubated with peptide at 200 µM, residual binding to glycocalicin; conditions: remark: other sources report otherwise
Y1 scFv [4] = test: competition ELISA: Y1 0.25 µg/well preincubated with peptide at 2.5 µM, residual binding to glycocalicin; conditions: remark: other sources report otherwise
Y1 scFv [5] = test: competitive FACS: Y1-scFv 1 µg preincubated with peptide at 2.5 µM, residual binding to washed platelets; conditions: remark: other sources report otherwise
Y1 scFv [6] = test: competition ELISA: Y1 0.25 µg/well preincubated with peptide at 25 µM, residual binding to glycocalicin; conditions: remark: other sources report otherwise
[7] = molecular target: T1, PSGL-1 on KG-1 cells (human); test: FACS, KG-1 cells, 5 ng tetramers
[8] = molecular target: T1, PSGL-1 on KG-1 cells (human); test: FACS on KG-1 cells
[9] = molecular target: T1, PSGL-1 on KG-1 cells (human); test: FACS, KG-1 cells

Sequence of Y1 scFv (chain, as listed by the source): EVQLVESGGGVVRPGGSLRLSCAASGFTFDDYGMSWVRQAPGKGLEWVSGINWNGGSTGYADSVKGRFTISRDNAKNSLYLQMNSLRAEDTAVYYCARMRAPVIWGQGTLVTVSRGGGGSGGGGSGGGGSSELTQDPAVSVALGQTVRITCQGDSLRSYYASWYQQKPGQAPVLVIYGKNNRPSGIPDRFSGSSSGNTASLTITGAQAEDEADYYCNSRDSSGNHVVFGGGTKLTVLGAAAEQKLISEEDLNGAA

Binder	Residual Binding of Y1 (% of baseline) (Geo Mean) (Y1 scFv [1]) [%]	Residual Binding of Y1 (% of baseline) (Y1 scFv [2]) [%]	Residual Binding of Y1 (% of baseline) (Y1 scFv [3]) [%]	Residual Binding of Y1 (% of baseline) (Y1 scFv [4]) [%]	Residual Binding of Y1 (% of baseline) (Geo Mean) (Y1 scFv [5]) [%]	Residual Binding of Y1 (% of baseline) (Y1 scFv [6]) [%]	fold higher response than other Y1 antibody forms [7] [fold]	fold increase in sensitivity of the binding [8] [fold]	fold more reactive [9] [fold]
B1	5	89	0	62	41	25			
B2							10 to 20	> 100	> 100
